Results published in patent US20090317363A1.

These binders were tested against CCR5 (UniProt P51681) (assay: cell-based or functional assay).

Binder | CCR5 sequestration (%) (% of control surface CCR5) | CCR5 signalling (%) (% of Emax of PSC-RANTES) | anti-HIV potency (IC50, nM) by cell fusion assay [nM] | anti-HIV potency (IC50, nM) by viral replication assay [nM]
RANTES derivative: signature sequence SEQ ID NO: 69 fused to positions 10-68 of native RANTES (SEQ ID NO: 1) (ligand) QGPPLMSGQVCCFAYIARPLPRAHIKEYFYTSGKCSNPAVVFVTRKNRQVCANPEKKWVREYINSLEMS | 38 | 20.1 | 0.22 | 
RANTES derivative: signature sequence SEQ ID NO: 13 fused to positions 10-68 of native RANTES (SEQ ID NO: 1) (ligand) QGPPLMWRGSCCFAYIARPLPRAHIKEYFYTSGKCSNPAVVFVTRKNRQVCANPEKKWVREYINSLEMS | 9 | < 5 | 0.07 | 
RANTES derivative: signature sequence SEQ ID NO: 19 fused to positions 10-68 of native RANTES (SEQ ID NO: 1) (ligand) QGPPGDGGSVCCFAYIARPLPRAHIKEYFYTSGKCSNPAVVFVTRKNRQVCANPEKKWVREYINSLEMS | 66 | 85.1 | 0.28 | 
RANTES derivative: signature sequence SEQ ID NO: 21 fused to positions 10-68 of native RANTES (SEQ ID NO: 1) (ligand) QGPPGDWLQVCCFAYIARPLPRAHIKEYFYTSGKCSNPAVVFVTRKNRQVCANPEKKWVREYINSLEMS | 54 | 14.2 | 0.54 | 
RANTES derivative: signature sequence SEQ ID NO: 64 fused to positions 10-68 of native RANTES (SEQ ID NO: 1) (ligand) QGPPLMSLQSCCFAYIARPLPRAHIKEYFYTSGKCSNPAVVFVTRKNRQVCANPEKKWVREYINSLEMS | 28 | 17.2 | 0.04 | 
RANTES derivative: signature sequence SEQ ID NO: 66 fused to positions 10-68 of native RANTES (SEQ ID NO: 1) (ligand) QGPPLMSVQSCCFAYIARPLPRAHIKEYFYTSGKCSNPAVVFVTRKNRQVCANPEKKWVREYINSLEMS | 42 | 33.4 | 0.07 | 
RANTES derivative: signature sequence SEQ ID NO: 24 fused to positions 10-68 of native RANTES (SEQ ID NO: 1) (ligand) QGPPLMSLQVCCFAYIARPLPRAHIKEYFYTSGKCSNPAVVFVTRKNRQVCANPEKKWVREYINSLEMS | 35 | 2.4 | 0.03 | 0.174
RANTES derivative: signature sequence SEQ ID NO: 3 fused to positions 10-68 of native RANTES (SEQ ID NO: 1) (ligand) QGPPLMWMQVCCFAYIARPLPRAHIKEYFYTSGKCSNPAVVFVTRKNRQVCANPEKKWVREYINSLEMS | 3 | < 5 | 0.02 | 
RANTES derivative: signature sequence SEQ ID NO: 17 fused to positions 10-68 of native RANTES (SEQ ID NO: 1) (ligand) QGPPGDIVLACCFAYIARPLPRAHIKEYFYTSGKCSNPAVVFVTRKNRQVCANPEKKWVREYINSLEMS | 70 | 87.7 | 0.02 | 129
RANTES derivative: signature sequence SEQ ID NO: 60 fused to positions 10-68 of native RANTES (SEQ ID NO: 1) (ligand) QGPPLQWMQACCFAYIARPLPRAHIKEYFYTSGKCSNPAVVFVTRKNRQVCANPEKKWVREYINSLEMS | 8 | 11.8 | 0.02 | 
RANTES derivative: signature sequence SEQ ID NO: 67 fused to positions 10-68 of native RANTES (SEQ ID NO: 1) (ligand) QGPPLMSAQSCCFAYIARPLPRAHIKEYFYTSGKCSNPAVVFVTRKNRQVCANPEKKWVREYINSLEMS | 15 | 10.3 | 0.12 | 
RANTES derivative: signature sequence SEQ ID NO: 63 fused to positions 10-68 of native RANTES (SEQ ID NO: 1) (ligand) QGPPLMSLSVCCFAYIARPLPRAHIKEYFYTSGKCSNPAVVFVTRKNRQVCANPEKKWVREYINSLEMS | 50 | 42.7 | 0.03 | 
RANTES derivative: signature sequence SEQ ID NO: 15 fused to positions 10-68 of native RANTES (SEQ ID NO: 1) (ligand) QGPPLMQTTPCCFAYIARPLPRAHIKEYFYTSGKCSNPAVVFVTRKNRQVCANPEKKWVREYINSLEMS | 2 | 2.4 | 0.65 | 
RANTES derivative: signature sequence SEQ ID NO: 20 fused to positions 10-68 of native RANTES (SEQ ID NO: 1) (ligand) QGPLSGQSTPCCFAYIARPLPRAHIKEYFYTSGKCSNPAVVFVTRKNRQVCANPEKKWVREYINSLEMS | 71 | 95.6 | 0.66 | 
RANTES derivative: signature sequence SEQ ID NO: 23 fused to positions 10-68 of native RANTES (SEQ ID NO: 1) (ligand) QGPPLMSTQSCCFAYIARPLPRAHIKEYFYTSGKCSNPAVVFVTRKNRQVCANPEKKWVREYINSLEMS | 35 | 5.3 | 0.03 | 0.625
